Laboratory results: CN115073591A (INST MILITARY MEDICINE ACADEMY MILITARY SCIENCES PLA, dated 2022)

Molecular target: T1, 人hCD2(His标签)蛋白 (human, UniProt P06729 25-209)
T1 construct: not shown: His tag
T1 sequence: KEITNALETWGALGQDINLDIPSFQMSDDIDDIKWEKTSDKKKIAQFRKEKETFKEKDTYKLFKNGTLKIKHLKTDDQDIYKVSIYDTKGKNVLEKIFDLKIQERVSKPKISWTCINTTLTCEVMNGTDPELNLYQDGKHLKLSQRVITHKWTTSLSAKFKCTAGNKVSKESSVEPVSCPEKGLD
Assay: ELISA, plate coated with hCD2-His at 2 μg/mL

B1: 单克隆抗体8G1 (antibody, V domains shown)
VH: EVLLVESGGGLVKPGGSLKLSCAASGFTFSSYAMSWVRQTPEKRLEWVATITNGGSYNYYPDSVKGRFTISRDNAKNTLYLQMSSLRSEDTAIYYCARSNPYYFDYWGQGTTLTVSP
VL: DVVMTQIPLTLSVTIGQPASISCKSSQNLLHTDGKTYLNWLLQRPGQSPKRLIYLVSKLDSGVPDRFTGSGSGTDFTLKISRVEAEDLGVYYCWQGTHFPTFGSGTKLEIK
B1: no binding (tested: 0.1μg/mL 8G1).
